Assay [1] deals with EBOV glycoprotein (GP), Makona strain, full length mature, on Jurkat-GP cells (native GP) (Zaire ebolavirus, Makona (stand-in: …, UniProt P87666, strain)).
Assay [2] addresses T1, thermolysin-cleaved EBOV GP on Jurkat-GP cells (cleaved GP) (Zaire ebolavirus, Makona (GP1 core …, strain)).
T1 chain 1: not shown
T1 chain 2: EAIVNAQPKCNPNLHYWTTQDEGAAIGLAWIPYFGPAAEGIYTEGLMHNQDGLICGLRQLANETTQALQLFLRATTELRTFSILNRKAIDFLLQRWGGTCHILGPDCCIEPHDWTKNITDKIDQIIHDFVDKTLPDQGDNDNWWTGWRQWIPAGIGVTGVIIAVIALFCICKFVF

Assay [3] addresses T2, EBOV GP ectodomain residues 1-636 (GPec) (Zaire ebolavirus, strain  …, UniProt Q05320).
The target of assay [4] is T2, EBOV GP ectodomain residues 1-636 (GPec). Kind of assay: ELISA. The conditions noted are these: both partners purified.

Experimental findings from publication PMC6908968 (Cell, 2019) are described below.

Like-named read-outs stand apart in the source and are kept apart here.

B1: 5.6.c3105 (antibody, V domains shown)
VH: EEQLVESGGDLVQPGGSLRLSCAASGFTFRSYDMYWVRQVTGKGLEWVSVIGAGGDTYYSDAVKGRFTISRENAKNSLYLQMNNLRAGDTAVYYCARSFGFLYGFDVWGHGTTVTVSS
VL: ENVLTQSPGTLSLSPGERATLSCRASQSISSKYFAWYQHKPGQAPRVLIYAASSRATGVPDRFSGSGSGTDFTLTISRLEPEDFAVYYCQQYDSSPITFGQGTRLEIK
On to B1, for which the binding result in assay [1], in assay [2] and in assay [3] was “binds” each time.

B2: 9.1.c2296 (antibody, V domains shown)
VH: QVQLVESGGGVVHPGRSLRLSCAASGFTFSTYGMHWVRQAPGKGLEWVAVISYDGTNKYYADSVKGRFTTSRDNSKNTLYLQMNSLRAEDTAVYYCAKGEAYYDILTGNIDMWGQGTMVTVSS
VL: DIQMTQSPSTLSASVGDRVTITCRASQSISYWLAWYQQKPGKAPKVLIYDVSSLESGVPSRFSGSGSETEFTLTISSLQPDDFATYYCQQYHSYPLTFGGGTKVEIK
For the molecule B2, the binding result in assay [2] and in assay [3] was “binds” in each case.

B3: 9.1.c1853 (antibody, V domains shown)
VH: EVQLVQSGAEVKKPGESLRISCKGSGNSFSSYWISWVRQKPGKGLEWMGRIDPSDSYTSYSPSFQGHVTISADKTNSTAYLQWSGLKASDTAVYYCAREVAGEEIFYYYYMDVWGKGTPVTVSS
VL: EIVLTQSPVTLSLSPGEKATLSCRASQSVISSYLVWYQQKPGQAPRLLIYGASNRASGIPDRFSGSGSGTDFTLTISRLEPEDFAVYYCQLYGSLPRWTFGQGTEVQIK
For B3, the binding result in assay [2] and in assay [3] was “binds” each time.

B4: 5.6.c3363 (antibody, V domains shown)
VH: EVKLVESGGDLIQPGGSLRLSCAGSGFTFSNYAMSWVRQAPGKGLEWVSGLSGSGRNTYYADSVKGRFTISRDNSQNTLFLQMNSLRAEDTAIYYCATASVWSGYVLQYWGQGALVIVSS
VL: DIQMTQSPSSLSASVGDRVTITCRASQNINDWLAWYQQKPGKAPKLLIFRASSLESGVPSRFSGSGFGTEFTLTISSLQPDDFASYYCQQYKSYPMYTFGQGTKLDIN
Consider B4, for which the binding result in assay [1], in assay [2] and in assay [3] was “binds” each time.

B5: mAb 5.1.10B3 (antibody, V domains shown)
VH: EVQLVESGGGLVQPGGSLRLSCAASGFTFRSYDMHWVRQATGKGLEWVSAIGTAGDTYYPGSVKGRFTISRENAKNSLYLQMNSLRAEDTAVYYCARVRFGDTAVDYWGQGTLVTVSS
VL: DIQMTQSPSSLSASVGDRVTITCRASQSISSFLNWHQQKPGKAPKLLIYAASSLQSGVPSRFSGSGSGTDFTLTISSLQPEDFAIYYCQQSYISPFTFGPGTKVDIK
Regarding B5, the binding result in assay [4] is given as “binds”.

B6: 9.1.c1965 (antibody, V domains shown)
VH: QVQLVQSGAEVKKPGASVKVSCKASGYTFTRYGINWVRQAPGQGLEWMGWISAYNGHTSYAQKLQGRVTMTTDTSTSTAYMELSSLRSDDTAVYYCARDAGMVRPYYFDYWGQGTLVTVSS
VL: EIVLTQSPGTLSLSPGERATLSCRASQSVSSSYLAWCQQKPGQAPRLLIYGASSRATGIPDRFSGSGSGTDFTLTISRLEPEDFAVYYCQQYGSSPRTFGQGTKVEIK
Turning to B6, the binding result in assay [2] and in assay [3] was “binds” in each case.

B7: mAb 2.1.6C11 (antibody, V domains shown)
VH: GAEVKKPGASVKVSCKASGYTFTTYDINWVRQATGQGLEWMGWMNPNSGNTGYAQKFQGRVTMTRNTSISTAYMELRSLRSEDTAVYYCAPGVTFWGQGTLVTVSS
VL: PSSLSAPVGDRVTITCRASQGISNSLAWFQQKPGKAPKSLIYAASSLQSGVPSNFSGSGSGTDFTLTISSLQPEDFATYYCQQYNSYPWTFGQGTKVEIK
As to B7, the binding result in assay [4] is “binds”.
